Source: IntAct's records for PubMed 18923430

B1: DnaJ homolog subfamily C member 3 (Mus musculus), Q91YW3 (parent)
chain: MVAPGSVGSRLGAVFPFLLVLVDLQYEGAECGVNADVEKHLELGKKLLAAGQLADALSQFHAAVDGDPDNYIAYYRRATVFLAMGKSKAALPDLTKVIALKMDFTAARLQRGHLLLKQGKLDEAEDDFKKVLKSNPSEQEEKEAESQLVKADEMQRLRSQALDAFDGADYTAAITFLDKILEVCVWDAELRELRAECFIKEGEPRKAISDLKAASKLKSDNTEAFYKISTLYYQLGDHELSLSEVRECLKLDQDHKRCFAHYKQVKKLNKLIESAEELIRDGRYTDATSKYESVMKTEPSVAEYTVRSKERICHCFSKDEKPVEAIRICSEVLQMEPDNVNALKDRAEAYLIEEMYDEAIQDYEAAQEHNENDQQIREGLEKAQRLLKQSQKRDYYKILGVKRNAKKQEIIKAYRKLALQWHPDNFQNEEEKKKAEKKFIDIAAAKEVLSDPEMRKKFDDGEDPLDAESQQGGGGNPFHRSWNSWQGFNPFSSGGPFRFKFHFN

Variants of: B1
Details: with bip_human HSPA5, P11021
bip_human HSPA5, P11021, sequence (P11021 whole entry): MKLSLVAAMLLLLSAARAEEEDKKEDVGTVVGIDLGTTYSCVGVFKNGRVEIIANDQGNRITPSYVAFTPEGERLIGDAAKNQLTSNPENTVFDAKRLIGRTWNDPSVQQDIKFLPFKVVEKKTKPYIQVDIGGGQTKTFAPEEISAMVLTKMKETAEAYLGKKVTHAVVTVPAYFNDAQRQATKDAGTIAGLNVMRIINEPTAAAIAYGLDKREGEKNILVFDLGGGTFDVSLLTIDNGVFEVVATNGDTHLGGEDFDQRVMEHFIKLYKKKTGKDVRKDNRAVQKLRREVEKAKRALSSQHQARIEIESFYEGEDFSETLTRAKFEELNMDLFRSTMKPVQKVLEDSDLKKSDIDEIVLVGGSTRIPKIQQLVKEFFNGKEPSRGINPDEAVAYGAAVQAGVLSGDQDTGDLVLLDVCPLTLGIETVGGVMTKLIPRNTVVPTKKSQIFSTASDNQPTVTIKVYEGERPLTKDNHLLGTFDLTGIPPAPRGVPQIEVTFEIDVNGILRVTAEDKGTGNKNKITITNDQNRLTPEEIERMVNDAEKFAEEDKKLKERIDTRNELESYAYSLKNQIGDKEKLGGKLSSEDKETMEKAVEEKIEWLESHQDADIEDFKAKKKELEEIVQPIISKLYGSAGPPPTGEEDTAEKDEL

Variant | effect of a mutation on the interaction
H422Q | disrupting interaction
